Measurements: paper PMC5639694 (Journal of medicinal chemistry, 2017)
Blank lines part the entries; values can stand above or below the molecule they belong to. Square brackets hold non-standard residues; d marks the D form. Dap = NC[C@H](N)C(=O)O

What was measured:
mMC4R [1] = target: T1, mMC4R (Mus musculus, UniProt P56450); conditions: read-out: mMC4R EC50; agonist; previously reported values; cited from earlier work
mMC5R = mMC5R (Mus musculus, UniProt P41149); conditions: read-out: mMC5R EC50; agonist; previously reported values; cited from earlier work
mMC4R [2] = target: T1, mMC4R; conditions: AGRP/NDP-MSH chimeric ligands; cited from earlier work
[3] = target: mouse melanocortin 1 receptor (mouse) (UniProt Q01727)
[4] = target: mouse melanocortin 3 receptor (mouse) (UniProt P33033)
[5] = target: mouse melanocortin 5 receptor (mouse) (UniProt P41149)
[6] = target: mouse melanocortin 4 receptor (mouse) (UniProt P56450)
mouse melanocortin 4 receptor (mouse), sequence (P56450 whole entry): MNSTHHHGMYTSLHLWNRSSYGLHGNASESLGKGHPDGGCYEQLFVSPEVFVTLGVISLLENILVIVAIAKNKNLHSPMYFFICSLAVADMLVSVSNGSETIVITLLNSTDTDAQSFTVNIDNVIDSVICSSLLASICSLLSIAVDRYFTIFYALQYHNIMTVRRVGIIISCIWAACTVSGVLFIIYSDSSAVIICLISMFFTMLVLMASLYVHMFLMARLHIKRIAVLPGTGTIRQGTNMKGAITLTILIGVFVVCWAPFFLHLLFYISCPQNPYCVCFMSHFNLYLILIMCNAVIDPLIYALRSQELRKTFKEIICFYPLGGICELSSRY

mouse melanocortin 5 receptor (mouse), sequence (P41149 whole entry): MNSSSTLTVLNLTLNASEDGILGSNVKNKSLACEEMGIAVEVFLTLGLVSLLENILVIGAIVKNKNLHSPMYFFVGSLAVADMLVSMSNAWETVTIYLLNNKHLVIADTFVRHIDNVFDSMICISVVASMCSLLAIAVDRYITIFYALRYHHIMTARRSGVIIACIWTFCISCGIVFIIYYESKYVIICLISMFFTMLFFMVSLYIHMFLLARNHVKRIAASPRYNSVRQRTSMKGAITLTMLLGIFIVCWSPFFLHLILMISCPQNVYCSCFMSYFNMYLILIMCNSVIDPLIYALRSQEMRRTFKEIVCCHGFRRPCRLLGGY
mouse melanocortin 1 receptor (mouse), sequence (Q01727 whole entry): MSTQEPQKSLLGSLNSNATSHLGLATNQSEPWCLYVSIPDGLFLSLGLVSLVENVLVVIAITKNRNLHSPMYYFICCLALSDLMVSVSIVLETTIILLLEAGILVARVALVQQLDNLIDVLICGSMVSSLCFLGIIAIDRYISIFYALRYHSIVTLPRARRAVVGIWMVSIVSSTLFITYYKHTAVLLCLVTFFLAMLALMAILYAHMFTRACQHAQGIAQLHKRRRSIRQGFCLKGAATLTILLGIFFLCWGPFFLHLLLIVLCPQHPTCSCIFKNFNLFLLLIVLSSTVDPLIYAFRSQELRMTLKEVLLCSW
T1 sequence (P56450 whole entry): as the sequence (P56450 whole entry) above
mouse melanocortin 3 receptor (mouse), sequence (P33033 whole entry): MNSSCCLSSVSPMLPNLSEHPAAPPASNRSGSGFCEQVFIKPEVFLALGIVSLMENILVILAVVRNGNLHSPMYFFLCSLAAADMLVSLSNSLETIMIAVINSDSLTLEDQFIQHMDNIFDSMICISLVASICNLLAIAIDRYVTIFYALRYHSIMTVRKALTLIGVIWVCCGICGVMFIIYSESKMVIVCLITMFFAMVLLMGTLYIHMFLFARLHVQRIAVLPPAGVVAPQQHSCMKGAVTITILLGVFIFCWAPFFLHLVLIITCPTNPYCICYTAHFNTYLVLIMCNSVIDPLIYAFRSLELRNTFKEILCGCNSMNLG
mMC5R, sequence (P41149 whole entry): as the sequence (P41149 whole entry) above

agonist EC50 (cAMP AlphaScreen, HEK293 cells stably expressing the receptor) [3]: 1.1 nM | agonist EC50 (cAMP AlphaScreen, HEK293 cells stably expressing the receptor) [6]: 1.6 nM
Molecule: cyclo(PH[dF]RW[Dap]A[dP])

agonist EC50 (cAMP AlphaScreen, HEK293 cells stably expressing the receptor) [3]: 460 nM | agonist EC50 (cAMP AlphaScreen, HEK293 cells stably expressing the receptor) [5]: 330 nM | agonist EC50 (cAMP AlphaScreen, HEK293 cells stably expressing the receptor) [6]: 950 nM
Molecule: cyclo(PH[dF]RW[Dap][dP])

agonist EC50 (cAMP AlphaScreen, HEK293 cells stably expressing the receptor) [5]: 46 nM
Molecule: cyclo(P[dF]RW[Dap]AF[dP])

agonist EC50 (cAMP AlphaScreen, HEK293 cells stably expressing the receptor) [5]: 48 nM | agonist EC50 (cAMP AlphaScreen, HEK293 cells stably expressing the receptor) [6]: 150 nM
Molecule: cyclo(P[dF]RW[Dap]A[dP])

agonist EC50 (cAMP AlphaScreen, HEK293 cells stably expressing the receptor) [3]: 0.35 nM | agonist EC50 (cAMP AlphaScreen, HEK293 cells stably expressing the receptor) [4]: 32 nM | agonist EC50 (cAMP AlphaScreen, HEK293 cells stably expressing the receptor) [5]: 0.45 nM | agonist EC50 (cAMP AlphaScreen, HEK293 cells stably expressing the receptor) [6]: 1.4 nM
B1: c[Pro-His-DPhe-Arg-Trp-Asn-Ala-Phe-DPro] (peptide)
peptide: cyclo(PH[dF]RWNAF[dP])
SMILES: C[C@@H]1NC(=O)[C@H](CC(N)=O)NC(=O)[C@H](Cc2c[nH]c3ccccc23)NC(=O)[C@H](CCCNC(=N)N)NC(=O)[C@@H](Cc2ccccc2)NC(=O)[C@H](Cc2c[nH]cn2)NC(=O)[C@@H]2CCCN2C(=O)[C@H]2CCCN2C(=O)[C@H](Cc2ccccc2)NC1=O

The next lines start with the molecule.

Molecule: CC(=O)N[C@@H](Cc1cnc[nH]1)C(=O)N[C@H](Cc1ccccc1)C(=O)N[C@@H](CCCN=C(N)N)C(=O)N[C@@H](Cc1c[nH]c2ccccc12)C(N)=O [HfRW, Ac-His-DPhe-Arg-Trp-NH2]
EC50 (mMC4R [1]): 14 ± 2 nM | EC50 (mMC5R): 10 ± 3 nM

Molecule: Tyr-c[Asp-His-DPhe-Arg-Trp-Asn-Ala-Phe-Dap]-Tyr-NH2
selectivity for the mMC4R over the mMC3R (reported) (mMC4R [2]): 5 fold

Molecule: Tyr-c[Cys-His-DPhe-Arg-Trp-Asn-Ala-Phe-Cys]-Tyr-NH2
selectivity for the mMC4R over the mMC3R (reported) (mMC4R [2]): 7 fold

Molecule: cyclo(PH[dF]RW[Dap]AF[dP])
agonist EC50 (cAMP AlphaScreen, HEK293 cells stably expressing the receptor) [3]: 24 nM | agonist EC50 (cAMP AlphaScreen, HEK293 cells stably expressing the receptor) [4]: 260 nM | agonist EC50 (cAMP AlphaScreen, HEK293 cells stably expressing the receptor) [5]: 18 nM

B2: c[Pro-His-DPhe-Arg-Trp-Asn-Ala-DPro] (peptide)
peptide: cyclo(PH[dF]RWNA[dP])
SMILES: C[C@@H]1NC(=O)[C@H](CC(N)=O)NC(=O)[C@H](Cc2c[nH]c3ccccc23)NC(=O)[C@H](CCCNC(=N)N)NC(=O)[C@@H](Cc2ccccc2)NC(=O)[C@H](Cc2c[nH]cn2)NC(=O)[C@@H]2CCCN2C(=O)[C@H]2CCCN2C1=O
agonist EC50 (cAMP AlphaScreen, HEK293 cells stably expressing the receptor) [3]: 12 nM | agonist EC50 (cAMP AlphaScreen, HEK293 cells stably expressing the receptor) [5]: 2.1 nM | agonist EC50 (cAMP AlphaScreen, HEK293 cells stably expressing the receptor) [6]: 29 nM

B3: c[Pro-DPhe-Arg-Trp-DPro] (peptide)
peptide: cyclo(P[dF]RW[dP])
SMILES: N=C(N)NCCC[C@@H]1NC(=O)[C@@H](Cc2ccccc2)NC(=O)[C@@H]2CCCN2C(=O)[C@H]2CCCN2C(=O)[C@H](Cc2c[nH]c3ccccc23)NC1=O
agonist EC50 (cAMP AlphaScreen, HEK293 cells stably expressing the receptor) [3]: 1800 nM

B4: c[Pro-His-DPhe-Arg-Trp-Asn-DPro] (peptide)
peptide: cyclo(PH[dF]RWN[dP])
agonist EC50 (cAMP AlphaScreen, HEK293 cells stably expressing the receptor) [5]: 16.8 nM | agonist EC50 (cAMP AlphaScreen, HEK293 cells stably expressing the receptor) [6]: 170 nM

B5: c[Pro-DPhe-Arg-Trp-Asn-Ala-DPro] (peptide)
peptide: cyclo(P[dF]RWNA[dP])
SMILES: C[C@@H]1NC(=O)[C@H](CC(N)=O)NC(=O)[C@H](Cc2c[nH]c3ccccc23)NC(=O)[C@H](CCCNC(=N)N)NC(=O)[C@@H](Cc2ccccc2)NC(=O)[C@@H]2CCCN2C(=O)[C@H]2CCCN2C1=O
agonist EC50 (cAMP AlphaScreen, HEK293 cells stably expressing the receptor) [6]: 420 nM

B6: c[Pro-DPhe-Arg-Trp-Asn-Ala-Phe-DPro] (peptide)
peptide: cyclo(P[dF]RWNAF[dP])
SMILES: C[C@@H]1NC(=O)[C@H](CC(N)=O)NC(=O)[C@H](Cc2c[nH]c3ccccc23)NC(=O)[C@H](CCCNC(=N)N)NC(=O)[C@@H](Cc2ccccc2)NC(=O)[C@@H]2CCCN2C(=O)[C@H]2CCCN2C(=O)[C@H](Cc2ccccc2)NC1=O
agonist EC50 (cAMP AlphaScreen, HEK293 cells stably expressing the receptor) [6]: 130 nM
